What was measured:
[1] = biological target: Succinyl-Leu-Leu-Val-Tyr-aminocoumarin (Artificial Sequence)
[2] = biological target: 20S Plasmodium proteasome (Pf20S), enriched from P. falciparum schizont lysate (Plasmodium falciparum); assay: inactivation kinetics of Pf20S, Suc-LLVY-AMC activity assay, non-linear regression of Kobs
[3] = biological target: human constitutive 20S proteasome (human); assay: inactivation kinetics of c20S, Suc-LLVY-AMC activity assay, non-linear regression of Kobs
[4] = biological target: human constitutive 20S proteasome (human)
[5] = biological target: 20S Plasmodium proteasome (Pf20S), enriched from P. falciparum schizont lysate (Plasmodium falciparum)
[6] = biological target: human constitutive 20S proteasome (human); remark: listed apart in the source
[7] = biological target: 20S Plasmodium proteasome (Pf20S), enriched from P. falciparum schizont lysate (Plasmodium falciparum); remark: listed apart in the source
[8] = biological target: β5 subunit of the S. cerevisiae 20S proteasome (PRE2), wild type (Saccharomyces cerevisiae)
[9] = biological target: β5 subunit of the S. cerevisiae 20S proteasome (PRE2) with M45I (M120I in the pro-protein), lineage 2 (Saccharomyces cerevisiae)

| Substance | hydrolysis of z-LRR-AMC (AMC release) (fold of the c20S rate) (z-LRR-AMC) | hydrolysis of suc-LLVY-AMC (AMC release) (fold of the c20S rate) [1] | hydrolysis of z-LLE-AMC (AMC release) (fold lower than c20S) (z-LLE-AMC) | Ki [2] [µM] | Ki [3] [µM] | inhibition of β5, β1 and β2 activity at 150 nM inhibitor (% inhibition of β5 activity) [4] | inhibition of β5, β1 and β2 activity at 150 nM inhibitor (% reduction of β5 activity) [5] | Kinact [6] [s⁻¹] | Kinact/KI [6] [M⁻¹ s⁻¹] | Kinact [7] [s⁻¹] | Kinact/KI [7] [M⁻¹ s⁻¹] | average IC50 (uM) of yeast growth, parental GM strain [8] [µM] | average IC50 (uM) of yeast growth, resistant lineage 2 [9] [µM] |
| --- | --- | --- | --- | --- | --- | --- | --- | --- | --- | --- | --- | --- | --- |
| 20S Plasmodium proteasome (Pf20S), enriched from P. falciparum schizont lysate (enzyme) | < 2 | < 2 | 19 |  |  |  |  |  |  |  |  |  |  |
| Carmaphycin B (peptide) |  |  |  | 0.223 | 0.375 | 98 | 45 | 0.00168 | 4480 | 0.000192 | 864 | 24.3 | 52.7 |
